Assay results published in patent US20170097353A1, “Polymer Viral Compositions” (The Regents of the University of California, priority 2015, published 2017).
Entries after “also recorded” stand apart in the source; their conditions may differ. Ends that are not written are not given here. * marks the point of attachment. Pent4ynoyl = C#CCCC(=O)*

What was measured:
PSMA on LNCaP cells = biological target: T1, PSMA on LNCaP cells (Homo sapiens, UniProt Q04609); assay: Cell-based phage ELISA, recognition of cell surface PSMA by PEGylated ligands on phage; settings: for binding affinity of dual ligand combinations: 2:1 dual ligand combinations on phage, FIG. 5B; for binding affinity for cell surface PSMA: PEGylated ligand 2 variants, specific/non-specific attachment, with/without PEG4 linker, FIG. 5A
T1 construct: endogenous in cells; host or cells: LNCaP (also LNCaP CSS), glutaraldehyde-fixed on Maxisorp plates
Protocol: Day 1: The cell-based ELISA was performed as previously described by Watanabe et. al. with the following modifications. Cells were detached with Trypsin-EDTA, resuspended in PBS, and then collected by centrifuging at 1200 rpm for 5 min. The cells were further washed with PBS and then concentrated as in the previous step. The concentration of the cells was adjusted to 4.5×10^6 cells/mL in PBS using a hemocytometer, and 100 μL was aliquoted to specific wells of a 96-well microtiter plate (Maxisorp plates from Nunc). The Maxisorp plates used here have a high protein-binding capacity. Thus, the plates can be used to run assays with either the cells or the phage immobilized in the wells. Next, 50 μL of a 0.15% glutaraldehyde in PBS solution was added to the wells at 4° C., and the solution was gently mixed by pipetting. The ELISA plate was then centrifuged at 1200 rpm for 10 min at 4° C., followed by overnight incubation at 4° C.
Day 2: The cell solution was gently removed, and the wells were blocked with 200 μL/well of blocking buffer containing 100 mM glycine, 1% gelatin and 0.1% w/v BSA (bovine serum albumin) in PBS. The plate was incubated overnight (˜20-22 h) at room temperature.
Separately, phage were prepared before attachment to PEG and PEGylated ligands. Phage (10 nM in 100 μL of PBS) and 1 μL of K14-alkyne (525 μM in water) were thoroughly mixed by pipetting ˜25 times. For phage wrapped with PEGylated ligands, phage were mixed with 0.75 μL of K14-Cys (525 μM in water). For mixed wrapping on the phage surface, 0.5 μL of K14-alkyne was pre-mixed with 0.75 μL of K14-Cys, and then mixed with 100 μL of 10 nM phage. The solution was shaken at room temperature for 15 min on an orbital shaker. Next, 2 μL of PEGylated ligand (625 μM in water) was added to the appropriate wells. For the dual ligand combinations, the PEGylated ligands were pre-mixed in the desired ratio (a 2:1 molar ratio for example), and then 2 μL of the mixture was added to the appropriate wells. The solutions were gently mixed by pipetting, and incubated overnight at 4° C.
Day 3: Next, the click reaction was performed, as previously described, but with the following modifications. To buffer the pH, triethylammonium acetate was added to a final concentration of 50 mM, followed by the addition of 1.5 μL of 1 mM azide-functionalized PEG. The solutions were mixed by pipetting. Next, ascorbic acid was added to a final concentration of 1 mM and the solutions were mixed by gently pipetting. Then, copper sulfate was added to a final concentration of 1.5 mM, followed by pipetting to mix the solutions. Water was added to the other wells to maintain consistent phage concentrations. The plate was incubated at room temperature for 30 min.
The wells of the ELISA plate were then incubated with the phage samples. The blocking buffer was removed and the wells were gently washed two times with PBS. Next, the phage solution was added to the respective wells and incubated for 45 min. The phage solution was removed, and the wells were washed three times with 300 μL/well of wash buffer PT (0.05% Tween-20 in PBS), once with PBS, and then incubated with horseradish peroxidase-conjugated anti-M13 antibody (100 μL/well, 1:5000 dilution in PBS) for 40 min. The wells were washed three times with PT and once with PBS. The plate was then developed by incubating with HRP substrate solution (100 μL/well; 1 mg/mL o-phenylenediamine dihydrochloride and 0.02% w/v H2O2) in citric acid buffer (50 mM citric acid, 50 mM Na2HPO4, pH 5.0). The HRP activity was measured spectrophotometrically at 450 nm using a microtiter plate reader (Bio-Tek). The absorbance at 630 nm was subtracted from the absorbance at 450 nm to eliminate background.

PSMA = biological target: T2, PSMA (Homo sapiens, UniProt Q04609); settings: genetically encoded, phage-displayed ligands [4,10]; cited from earlier work
T2 construct: The effective detection of PSMA shed by LNCaP cells, in androgen sensitive and androgen independent cells; endogenous in cells; host or cells: culture supernatant of LNCaP and LNCaP CSS cells

[1] = Dynamic light scattering (DLS) size measurement; assay type: physicochemical
Protocol: For determination of size, 1 mL of each sample was measured at the same concentration as used for the biological assay. Each sample was measured at least three times at 25° C., with each individual size measurement being the average of 10 runs.

T1 sequence (Q04609 whole entry): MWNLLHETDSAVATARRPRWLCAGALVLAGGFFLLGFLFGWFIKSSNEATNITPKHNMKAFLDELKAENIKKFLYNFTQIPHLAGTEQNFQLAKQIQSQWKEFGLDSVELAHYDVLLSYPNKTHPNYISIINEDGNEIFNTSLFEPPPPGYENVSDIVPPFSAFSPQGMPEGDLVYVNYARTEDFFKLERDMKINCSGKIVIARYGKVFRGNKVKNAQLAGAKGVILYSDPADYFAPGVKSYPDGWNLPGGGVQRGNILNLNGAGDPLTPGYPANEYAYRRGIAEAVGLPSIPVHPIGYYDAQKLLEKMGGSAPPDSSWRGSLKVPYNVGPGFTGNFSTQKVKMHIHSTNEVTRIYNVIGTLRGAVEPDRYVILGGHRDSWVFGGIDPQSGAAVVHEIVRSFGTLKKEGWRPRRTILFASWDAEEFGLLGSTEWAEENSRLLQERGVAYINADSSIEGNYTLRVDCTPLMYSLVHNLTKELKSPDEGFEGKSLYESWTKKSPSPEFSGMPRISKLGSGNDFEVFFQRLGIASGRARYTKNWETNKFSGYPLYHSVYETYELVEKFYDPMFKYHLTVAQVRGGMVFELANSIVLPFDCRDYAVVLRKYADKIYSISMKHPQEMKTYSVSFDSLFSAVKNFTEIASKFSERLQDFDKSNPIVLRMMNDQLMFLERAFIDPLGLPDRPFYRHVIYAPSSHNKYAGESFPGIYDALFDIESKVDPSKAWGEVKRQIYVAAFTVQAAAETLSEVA
T2 sequence (Q04609 whole entry): as above

## P100NSP-P4-2+P100NSP-P4-1: phage wrapped with dual ligand combination, non-specific attachment with PEG4 linker (peptide 1 SECVEVFQNSCDW-NH2; peptide 2 CALCEFLG-NH2; not fully specified (N-terminus); cysteine pairing not given here; also: PEG100 non-specific attachment with PEG4 linker)
PSMA on LNCaP cells; LNCaP cells
  binding affinity of dual ligand combinations: drop in affinity; also recorded: affinity equivalent to P100NSP-P4-2

## K14-alkyne: alkyne-functionalized oligolysine (K14) peptide that wraps the phage, SEQ ID NO:1 (Pent4ynoyl-KKKKKKKKKKKKKK-NH2; SMILES C#CCCC(=O)N[C@@H](CCCCN)C(=O)N[C@@H](CCCCN)C(=O)N[C@@H](CCCCN)C(=O)N[C@@H](CCCCN)C(=O)N[C@@H](CCCCN)C(=O)N[C@@H](CCCCN)C(=O)N[C@@H](CCCCN)C(=O)N[C@@H](CCCCN)C(=O)N[C@@H](CCCCN)C(=O)N[C@@H](CCCCN)C(=O)N[C@@H](CCCCN)C(=O)N[C@@H](CCCCN)C(=O)N[C@@H](CCCCN)C(=O)N[C@@H](CCCCN)C(N)=O)
PSMA on LNCaP cells; dual ligand combination P100SP-P4-2+P100SP-P4-1 with or without spacers, LNCaP cells, FIG. 6
  PSMA recognition / binding affinity with PEG spacers: no effect on binding affinity

## P100SP-P4-2+P100SP-P4-1: phage wrapped with dual ligand combination in a 2:1 ratio, specific attachment with PEG4 linker (peptide 1 SECVEVFQNSCDW-NH2; peptide 2 CALCEFLG-NH2; not fully specified (N-terminus); cysteine pairing not given here; also: mixture of two PEG100 conjugates (ligand 2 and ligand 1, 2:1) with PEG4 linker, specific N-terminal triazole attachment)
PSMA on LNCaP cells; LNCaP cells
  binding affinity of dual ligand combinations: significant increase in binding affinity

## SECVEVFQNSCDW [ligand-2]
PSMA
  higher affinity to PSMA than ligand-1: > 100 fold

## P100NSP-2: PEG100, non-specific attachment to ligand 2; bioconjugated to phage wrapped with K14-Cys (SECVEVFQNSCDW-NH2; not fully specified (N-terminus); cysteine pairing not given here; also: PEG100 attached non-specifically)
PSMA on LNCaP cells; phage wrapped with K14-Cys and individual PEGylated ligand, FIG. 14
  binding affinity for LNCaP cells: higher affinity for LNCaP cells compared to P100NSP-1

## P100SP-2: PEG100, specific attachment to ligand 2; bioconjugated to phage wrapped with K14-Cys (SECVEVFQNSCDW-NH2; not fully specified; cysteine pairing not given here; also: specific N-terminal attachment to Mal-PEG100 via triazole)
PSMA on LNCaP cells
  binding affinity for cell surface PSMA: higher binding affinity for cell surface PSMA than P100NSP-2

## PEGylated oligolysine: K14-alkyne pre-conjugated to azide PEG7, 22 or 45 by click reaction, then applied to phage (Pent4ynoyl-KKKKKKKKKKKKKK-NH2; also: alkyne click-conjugated (triazole) to azide PEG7, 22 or 45)
[1]; DLS, phage treated with pre-formed PEGylated oligolysine (data not shown)
  change in the cross-sectional diameter of the treated phage: no significant change

## P100SP-P4-2: PEG100, specific attachment, PEG4 linker, ligand 2; on phage wrapped with K14-Cys (SECVEVFQNSCDW-NH2; not fully specified (N-terminus); cysteine pairing not given here; also: PEG100, specific attachment, PEG4 linker)
PSMA on LNCaP cells
  binding affinity for cell surface PSMA: most effective architecture
[1]; DLS backscatter mode, relative to previous wrapping step, FIGS. 3A-3B
  increase in cross-sectional diameter: 10 nm

## K14-Cys: oligolysine (K14) peptide with cysteine, wraps the phage, SEQ ID NO:2 (KKKKKKKKKKKKKKC; not fully specified (C-terminus))
[1]; DLS backscatter mode, scattering angle 173°, FIG. 3A
  average cross-sectional diameter: 50.0 nm

## P100NSP-2+P100NSP-1: phage wrapped with 2:1 dual ligand combination of P100NSP-2 and P100NSP-1 (peptide 1 SECVEVFQNSCDW; peptide 2 CALCEFLG)
PSMA on LNCaP cells; LNCaP cells
  binding affinity of dual ligand combinations: only a modest improvement
PSMA on LNCaP cells; different ratios of the two PEGylated, phage-wrapped ligands, FIG. 4
  recognition of PSMA on LNCaP cells: maximize the recognition of PSMA on LNCaP cells
